Data on seven molecules can be found in article PMC4500542 (Cell reports, 2015).

Broadly, the Kd is the constant that tells how readily two partners part at equilibrium. Lower therefore signals higher affinity.

Series [1] deals with EBOV NP° core domain (NP 34-367) (Ebola virus (EBOV, formerly Zaire ebolavirus)) (UniProt P18272). The series can be described thus: ITC. On the technique in general: ITC needs no label: the signal is the heat of the interaction.
Series [2] deals with the molecule itself. Description: SEC-MALS. Background: In gel filtration, larger molecules generally elute earlier.
Series [3] concerns the molecule itself. Description: SEC-MALS. The source holds these as a separate data set.

Read-outs that look alike come from different tables or passages of the source.

On to “EBOV VP35 1-80 peptide (purified, wild type) (from UniProt Q05127 1-80) (domain or fragment)”, for which the dissociation constant Kd in series [1] came out at 1.1 nM.

B1: MBP-EBOV NP 1-739 (oligomeric, RNA-bound) (natural protein)
chain: MDSRPQKIWMAPSLTESDMDYHKILTAGLSVQQGIVRQRVIPVYQVNNLEEICQLIIQAFEAGVDFQESADSFLLMLCLHHAYQGDYKLFLESGAVKYLEGHGFRFEVKKRDGVKRLEELLPAVSSGKNIKRTLAAMPEEETTEANAGQFLSFASLFLPKLVVGEKACLEKVQRQIQVHAEQGLIQYPTAWQSVGHMMVIFRLMRTNFLIKFLLIHQGMHMVAGHDANDAVISNSVAQARFSGLLIVKTVLDHILQKTERGVRLHPLARTAKVKNEVNSFKAALSSLAKHGEYAPFARLLNLSGVNNLEHGLFPQLSAIALGVATAHGSTLAGVNVGEQYQQLREAATEAEKQLQQYAESRELDHLGLDDQEKKILMNFHQKKNEISFQQTNAMVTLRKERLAKLTEAITAASLPKTSGHYDDDDDIPFPGPINDDDNPGHQDDDPTDSQDTTIPDVVVDPDDGSYGEYQSYSENGMNAPDDLVLFDLDEDDEDTKPVPNRSTKGGQQKNSQKGQHIEGRQTQSRPIQNVPGPHRTIHHASAPLTDNDRRNEPSGSTSPRMLTPINEEADPLDDADDETSSLPPLESDDEEQDRDGTSNRTPTVAPPAPVYRDHSEKKELPQDEQQDQDHTQEARNQDSDNTQSEHSFEEMYRHILRSQGPFDAVLYYHMMKDEPVVFSTSDGKEYTYPDSLEEEYPPWLTEKEAMNEENRFVTLDGQQFYWPVMNHKNKFMAILQHHQ
For B1, in “SEC-MALS [2]”, the binding result is listed as “binds”.

B2: MBP-EBOV NP 19-389 (domain or fragment)
chain: MDYHKILTAGLSVQQGIVRQRVIPVYQVNNLEEICQLIIQAFEAGVDFQESADSFLLMLCLHHAYQGDYKLFLESGAVKYLEGHGFRFEVKKRDGVKRLEELLPAVSSGKNIKRTLAAMPEEETTEANAGQFLSFASLFLPKLVVGEKACLEKVQRQIQVHAEQGLIQYPTAWQSVGHMMVIFRLMRTNFLIKFLLIHQGMHMVAGHDANDAVISNSVAQARFSGLLIVKTVLDHILQKTERGVRLHPLARTAKVKNEVNSFKAALSSLAKHGEYAPFARLLNLSGVNNLEHGLFPQLSAIALGVATAHGSTLAGVNVGEQYQQLREAATEAEKQLQQYAESRELDHLGLDDQEKKILMNFHQKKNEISFQ
As to B2, in the series “SEC-MALS [3]”, the binding result is on record as “binds”.

B3: MBP-EBOV NP 1-450 (oligomeric, RNA-bound) (domain or fragment)
chain: MDSRPQKIWMAPSLTESDMDYHKILTAGLSVQQGIVRQRVIPVYQVNNLEEICQLIIQAFEAGVDFQESADSFLLMLCLHHAYQGDYKLFLESGAVKYLEGHGFRFEVKKRDGVKRLEELLPAVSSGKNIKRTLAAMPEEETTEANAGQFLSFASLFLPKLVVGEKACLEKVQRQIQVHAEQGLIQYPTAWQSVGHMMVIFRLMRTNFLIKFLLIHQGMHMVAGHDANDAVISNSVAQARFSGLLIVKTVLDHILQKTERGVRLHPLARTAKVKNEVNSFKAALSSLAKHGEYAPFARLLNLSGVNNLEHGLFPQLSAIALGVATAHGSTLAGVNVGEQYQQLREAATEAEKQLQQYAESRELDHLGLDDQEKKILMNFHQKKNEISFQQTNAMVTLRKERLAKLTEAITAASLPKTSGHYDDDDDIPFPGPINDDDNPGHQDDDPTDSQ
Consider B3, for which, in “SEC-MALS [3]”, the binding result was “binds”.

B4: EBOV NP 1-450 (oligomeric, RNA-bound, purified directly from E. coli) (domain or fragment)
chain: MDSRPQKIWMAPSLTESDMDYHKILTAGLSVQQGIVRQRVIPVYQVNNLEEICQLIIQAFEAGVDFQESADSFLLMLCLHHAYQGDYKLFLESGAVKYLEGHGFRFEVKKRDGVKRLEELLPAVSSGKNIKRTLAAMPEEETTEANAGQFLSFASLFLPKLVVGEKACLEKVQRQIQVHAEQGLIQYPTAWQSVGHMMVIFRLMRTNFLIKFLLIHQGMHMVAGHDANDAVISNSVAQARFSGLLIVKTVLDHILQKTERGVRLHPLARTAKVKNEVNSFKAALSSLAKHGEYAPFARLLNLSGVNNLEHGLFPQLSAIALGVATAHGSTLAGVNVGEQYQQLREAATEAEKQLQQYAESRELDHLGLDDQEKKILMNFHQKKNEISFQQTNAMVTLRKERLAKLTEAITAASLPKTSGHYDDDDDIPFPGPINDDDNPGHQDDDPTDSQ
B4: the binding result in the series “SEC-MALS [3]” is given as “binds”.

B5: EBOV NP 1-450 released by TEV protease from the cleavable fusion (RNA-free) (domain or fragment)
chain: MDSRPQKIWMAPSLTESDMDYHKILTAGLSVQQGIVRQRVIPVYQVNNLEEICQLIIQAFEAGVDFQESADSFLLMLCLHHAYQGDYKLFLESGAVKYLEGHGFRFEVKKRDGVKRLEELLPAVSSGKNIKRTLAAMPEEETTEANAGQFLSFASLFLPKLVVGEKACLEKVQRQIQVHAEQGLIQYPTAWQSVGHMMVIFRLMRTNFLIKFLLIHQGMHMVAGHDANDAVISNSVAQARFSGLLIVKTVLDHILQKTERGVRLHPLARTAKVKNEVNSFKAALSSLAKHGEYAPFARLLNLSGVNNLEHGLFPQLSAIALGVATAHGSTLAGVNVGEQYQQLREAATEAEKQLQQYAESRELDHLGLDDQEKKILMNFHQKKNEISFQQTNAMVTLRKERLAKLTEAITAASLPKTSGHYDDDDDIPFPGPINDDDNPGHQDDDPTDSQ
Regarding B5, in the series “SEC-MALS [3]”, the binding result is recorded as “binds”.

B6: EBOV NP 1-450 (co-expressed with His-VP35 1-80) (domain or fragment)
chain: MDSRPQKIWMAPSLTESDMDYHKILTAGLSVQQGIVRQRVIPVYQVNNLEEICQLIIQAFEAGVDFQESADSFLLMLCLHHAYQGDYKLFLESGAVKYLEGHGFRFEVKKRDGVKRLEELLPAVSSGKNIKRTLAAMPEEETTEANAGQFLSFASLFLPKLVVGEKACLEKVQRQIQVHAEQGLIQYPTAWQSVGHMMVIFRLMRTNFLIKFLLIHQGMHMVAGHDANDAVISNSVAQARFSGLLIVKTVLDHILQKTERGVRLHPLARTAKVKNEVNSFKAALSSLAKHGEYAPFARLLNLSGVNNLEHGLFPQLSAIALGVATAHGSTLAGVNVGEQYQQLREAATEAEKQLQQYAESRELDHLGLDDQEKKILMNFHQKKNEISFQQTNAMVTLRKERLAKLTEAITAASLPKTSGHYDDDDDIPFPGPINDDDNPGHQDDDPTDSQ
As to B6, in “SEC-MALS [3]”, the binding result is recorded as “binds”.
